Measurements reported in paper PMC11077872, “Sustainable production of multimeric and functional recombinant human adiponectin using genome-edited chickens” (Journal of Biological Engineering, 2024).
Values joined by “and” are separate entries in the source; they are usually repeats but may differ in a detail not shown here. Identical values can stand only once.

B1: recombinant human adiponectin (hADPN) from egg white of OVA ADPN knock-in genome-edited chickens (natural protein, UniProt Q15848 19-244, looked up)
chain: ETTTQGPGVLLPLPKGACTGWMAGIPGHPGHNGAPGRDGRDGTPGEKGEKGDPGLIGPKGDIGETGVPGAEGPRGFPGIQGRKGEPGEGAYVYRSAFSVGLETYVTIPNMPIRFTKIFYNQQNHYDGSTGKFHCNIPGLYYFAYHITVYMKDVKVSLFKKDKAMLFTYDQYQENNVDQASGSVLLHLEVGDQVWLQVYGEGERNGLYADNDNDSTFTGFLLYHDTN
notes: human adiponectin (ADPN), expressed from the chicken ovalbumin locus by knock-in; A mixture of hexamers and HMW multimers; also called EW-derived hADPN; EW-derived recombinant hADPN; source: egg white of OVA ADPN knock-in hens (G1-G4), diluted egg white; also purified from egg white (ammonium sulfate, HiTrap Q, Superdex 200 SEC)
B2: High-Five (Hi-5) cell-derived recombinant hADPN (natural protein, human, UniProt Q15848 19-244, looked up)
chain: B1 chain
notes: human adiponectin (ADPN); Mostly trimers, with hexamers and a weak monomer signal; also called Hi-5 cell hADPN; Hi-5 cell-derived commercial hADPN; source: bought: PeproTech (450-24), Hi-5 cells
B3: commercial recombinant hADPN derived from human embryonic kidney (HEK) 293 cells with a C-terminal FLAG tag (natural protein, UniProt Q15848 19-244, looked up)
chain: B1 chain
notes: human adiponectin (ADPN); Mixture of trimers, hexamers and HMW forms; also called HEK293 cell hADPN; HEK293 cell-derived commercial hADPN; source: bought: Biovendor R&D (RD172023100), HEK293 cells; not shown: FLAG, C-terminal, kept
B4: serum-derived commercial hADPN (natural protein, human, UniProt Q15848 19-244, looked up)
chain: B1 chain
notes: human adiponectin (ADPN), native protein from human serum; also called native serum-derived hADPN; human serum hADPN (positive control); source: bought: ProSpec (CYT-024), derived from human serum

Columns and labels:
[1] = target: the molecule itself; test: non-reducing SDS-PAGE with western blot; egg white of hens of generations G1-G4 diluted 500 times, mixed with native sample buffer (non-reducing), SDS-PAGE, anti-ADPN blot; with beta-mercaptoethanol and 95 °C mostly monomer at 28 kDa and a weak trimer signal
[2] = target: the molecule itself; test: non-reducing SDS-PAGE with western blot; 100 ng of purified or commercial hADPN, mixed with native sample buffer (non-reducing), SDS-PAGE, anti-ADPN blot; with beta-mercaptoethanol and 95 °C mostly monomer, some trimer

Row | Protein | stoichiometry N [1] | stoichiometry N [2]
1 | B1 | 6 | 
2 | B2 |  | 3 and 6
3 | B3 |  | 6 and 3
4 | B4 |  | 6
